US7294706

Columns and labels:
[1] = target: FGFR2 over-expressed on CHO cells (CHO-FGFR2) and on 32D cells (32D-FGFR2) (UniProt P21803); assay: cell-based or functional assay
[2] = target: FGFR2 over-expressed on CHO cells (CHO-FGFR2) and on 32D cells (32D-FGFR2) (UniProt P21803); assay: competition of unlabeled protein with 125I-FGF4 (Gly79-Leu206) for CHO-FGFR2 cells, +heparin

B1: FGF4 (Gly79-Leu206) Y87A (ligand)
chain: GIKRLRRLACNVGIGFHLQALPDGRIGGAHADTRDSLLELSPVERGVVSIFGVASRFFVAMSSKGKLYGSPFFTDECTFKEILLPNNYNAYESYKYPGMFIALGKNGKTKKGNRVSPTMKVTHFLPRL
Question: What does the source list for B1?
Answer: DNA Synthesis NIH 3T3 cells (ED50 mutant/ED50 wild-type), +heparin (ratio ED50 mutant/ED50 wild-type) [1]: 500; DNA Synthesis NIH 3T3 cells (ED50 mutant/ED50 wild-type), -heparin (ratio ED50 mutant/ED50 wild-type) [1]: > 500; IC50 mutant/IC50 wild-type (ratio (IC50 mutant/IC50 wild-type)) [2]: > 100

B2: FGF4 (Gly79-Leu206) H201A (ligand)
chain: GIKRLRRLYCNVGIGFHLQALPDGRIGGAHADTRDSLLELSPVERGVVSIFGVASRFFVAMSSKGKLYGSPFFTDECTFKEILLPNNYNAYESYKYPGMFIALGKNGKTKKGNRVSPTMKVTAFLPRL
Question: B2 was tested. Which IC50 mutant/IC50 wild-type (ratio (IC50 mutant/IC50 wild-type)) [2] did it give?
Answer: Its IC50 mutant/IC50 wild-type (ratio (IC50 mutant/IC50 wild-type)) is over 1000.

B3: FGF4 (Gly79-Leu206) E159A (ligand)
chain: GIKRLRRLYCNVGIGFHLQALPDGRIGGAHADTRDSLLELSPVERGVVSIFGVASRFFVAMSSKGKLYGSPFFTDECTFKAILLPNNYNAYESYKYPGMFIALGKNGKTKKGNRVSPTMKVTHFLPRL
Question: B3 was tested. Which IC50 mutant/IC50 wild-type (ratio (IC50 mutant/IC50 wild-type)) [2] did it give?
Answer: The IC50 mutant/IC50 wild-type (ratio (IC50 mutant/IC50 wild-type)) was 5.

B4: FGF4 (Gly79-Leu206) E117A (ligand)
chain: GIKRLRRLYCNVGIGFHLQALPDGRIGGAHADTRDSLLALSPVERGVVSIFGVASRFFVAMSSKGKLYGSPFFTDECTFKEILLPNNYNAYESYKYPGMFIALGKNGKTKKGNRVSPTMKVTHFLPRL
Question: For B4, which IC50 mutant/IC50 wild-type (ratio (IC50 mutant/IC50 wild-type)) [2] is on record?
Answer: Its IC50 mutant/IC50 wild-type (ratio (IC50 mutant/IC50 wild-type)) is 7.

B5: FGF4 (Gly79-Leu206) F151A (ligand)
chain: GIKRLRRLYCNVGIGFHLQALPDGRIGGAHADTRDSLLELSPVERGVVSIFGVASRFFVAMSSKGKLYGSPFATDECTFKEILLPNNYNAYESYKYPGMFIALGKNGKTKKGNRVSPTMKVTHFLPRL
Question: How did the IC50 mutant/IC50 wild-type (ratio (IC50 mutant/IC50 wild-type)) [2] turn out when B5 was run?
Answer: Its IC50 mutant/IC50 wild-type (ratio (IC50 mutant/IC50 wild-type)) is 2.5.

B6: FGF4 (Gly79-Leu206) L203A (ligand)
chain: GIKRLRRLYCNVGIGFHLQALPDGRIGGAHADTRDSLLELSPVERGVVSIFGVASRFFVAMSSKGKLYGSPFFTDECTFKEILLPNNYNAYESYKYPGMFIALGKNGKTKKGNRVSPTMKVTHFAPRL
Question: Which results are given for B6?
Answer: DNA Synthesis NIH 3T3 cells (ED50 mutant/ED50 wild-type), +heparin (ratio ED50 mutant/ED50 wild-type) [1]: > 500; DNA Synthesis NIH 3T3 cells (ED50 mutant/ED50 wild-type), -heparin (ratio ED50 mutant/ED50 wild-type) [1]: > 500; IC50 mutant/IC50 wild-type (ratio (IC50 mutant/IC50 wild-type)) [2]: > 100

B7: FGF4 (Gly79-Leu206) R205A (ligand)
chain: GIKRLRRLYCNVGIGFHLQALPDGRIGGAHADTRDSLLELSPVERGVVSIFGVASRFFVAMSSKGKLYGSPFFTDECTFKEILLPNNYNAYESYKYPGMFIALGKNGKTKKGNRVSPTMKVTHFLPAL
Question: For B7, which DNA Synthesis NIH 3T3 cells (ED50 mutant/ED50 wild-type), +heparin (ratio ED50 mutant/ED50 wild-type) [1] is on record?
Answer: The DNA Synthesis NIH 3T3 cells (ED50 mutant/ED50 wild-type), +heparin (ratio ED50 mutant/ED50 wild-type) was 2.5.

Question: And the DNA Synthesis NIH 3T3 cells (ED50 mutant/ED50 wild-type), -heparin (ratio ED50 mutant/ED50 wild-type) [1]?
Answer: The DNA Synthesis NIH 3T3 cells (ED50 mutant/ED50 wild-type), -heparin (ratio ED50 mutant/ED50 wild-type) was 25.

Question: What about the IC50 mutant/IC50 wild-type (ratio (IC50 mutant/IC50 wild-type)) [2] of the same binder?
Answer: Its IC50 mutant/IC50 wild-type (ratio (IC50 mutant/IC50 wild-type)) is 2.5.

B8: FGF4 (Gly79-Leu206) F129A (ligand)
chain: GIKRLRRLYCNVGIGFHLQALPDGRIGGAHADTRDSLLELSPVERGVVSIAGVASRFFVAMSSKGKLYGSPFFTDECTFKEILLPNNYNAYESYKYPGMFIALGKNGKTKKGNRVSPTMKVTHFLPRL
Question: For B8, which DNA Synthesis NIH 3T3 cells (ED50 mutant/ED50 wild-type), +heparin (ratio ED50 mutant/ED50 wild-type) [1] is on record?
Answer: Its DNA Synthesis NIH 3T3 cells (ED50 mutant/ED50 wild-type), +heparin (ratio ED50 mutant/ED50 wild-type) is over 500.

Question: What about the DNA Synthesis NIH 3T3 cells (ED50 mutant/ED50 wild-type), -heparin (ratio ED50 mutant/ED50 wild-type) [1] of the same binder?
Answer: The DNA Synthesis NIH 3T3 cells (ED50 mutant/ED50 wild-type), -heparin (ratio ED50 mutant/ED50 wild-type) was over 500.

Question: And the IC50 mutant/IC50 wild-type (ratio (IC50 mutant/IC50 wild-type)) [2]?
Answer: Its IC50 mutant/IC50 wild-type (ratio (IC50 mutant/IC50 wild-type)) is over 100.

B9: FGF4 (Gly79-Leu206) L162A (ligand)
chain: GIKRLRRLYCNVGIGFHLQALPDGRIGGAHADTRDSLLELSPVERGVVSIFGVASRFFVAMSSKGKLYGSPFFTDECTFKEILAPNNYNAYESYKYPGMFIALGKNGKTKKGNRVSPTMKVTHFLPRL
Question: Which IC50 mutant/IC50 wild-type (ratio (IC50 mutant/IC50 wild-type)) [2] does the source give for B9 here?
Answer: The IC50 mutant/IC50 wild-type (ratio (IC50 mutant/IC50 wild-type)) was over 1000.

B10: FGF4 (Gly79-Leu206) Y166A (ligand)
chain: GIKRLRRLYCNVGIGFHLQALPDGRIGGAHADTRDSLLELSPVERGVVSIFGVASRFFVAMSSKGKLYGSPFFTDECTFKEILLPNNANAYESYKYPGMFIALGKNGKTKKGNRVSPTMKVTHFLPRL
Question: What does the source list for B10?
Answer: DNA Synthesis NIH 3T3 cells (ED50 mutant/ED50 wild-type), +heparin (ratio ED50 mutant/ED50 wild-type) [1]: > 500; DNA Synthesis NIH 3T3 cells (ED50 mutant/ED50 wild-type), -heparin (ratio ED50 mutant/ED50 wild-type) [1]: 500; IC50 mutant/IC50 wild-type (ratio (IC50 mutant/IC50 wild-type)) [2]: > 100

B11: N-terminal truncated wild-type FGF4 (Gly79-Leu206) (ligand)
chain: GIKRLRRLYCNVGIGFHLQALPDGRIGGAHADTRDSLLELSPVERGVVSIFGVASRFFVAMSSKGKLYGSPFFTDECTFKEILLPNNYNAYESYKYPGMFIALGKNGKTKKGNRVSPTMKVTHFLPRL
Question: For B11, which IC50 mutant/IC50 wild-type (ratio (IC50 mutant/IC50 wild-type)) [2] is on record?
Answer: Its IC50 mutant/IC50 wild-type (ratio (IC50 mutant/IC50 wild-type)) is 1.
